From US20250195657A1 (NEOMICS PHARMACEUTICALS, published 2025)

Molecular target: T1, B cell maturation antigen (BCMA) (UniProt Q02223 1-54, limits assumed)
T1 construct: also called CD269; TNFRSF17
T1 sequence (looked up): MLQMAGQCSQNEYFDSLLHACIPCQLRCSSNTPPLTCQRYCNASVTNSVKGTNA
Assay: not stated (no method given)

Kd: 1 nM
B1: BCMA nanobody (BCMA binding domain of NPB5005) (VHH)
VHH: EVQLQASGGGLAQPGGSLRLSCAASGRTFSTYFMAWFRQPPGKGLEYVGGIRWSDGVPHYADSVKGRFTISRDNAKNTVYLQMNSLRAEDTAVYFCASRGIADGSDFGSYGQGTQVTVSS
